Numbering of substitutions follows the chain as printed. Names may count otherwise. Each block holds one molecule with its values, some of them ahead of it.
Target: T1, human neonatal Fc-receptor (FcRn) (human, UniProt P55899 24-297; P61769 21-119, limits assumed)
T1 construct: also called the receptor
Test: FcRn affinity chromatography

Molecule: anti-HER2 antibody with symmetric mutation D98E
retention time: 46.2 min

Molecule: anti-HER2 antibody with symmetric mutation T256H
retention time: 46 min

Molecule: anti-HER2 antibody, wild-type
retention time: 46.3 min

B1: IgG1 Fc-region with L234A/L235A/P329G and H310A/H433A/Y436A (other)
chain: DKTHTCPPCPAPEAAGGPSVFLFPPKPKDTLMISRTPEVTCVVVDVSHEDPEVKFNWYVDGVEVHNAKTKPREEQYNSTYRVVSVLTVLAQDWLNGKEYKCKVSNKALGAPIEKTISKAKGQPREPQVYTLPPSRDELTKNQVSLTCLVKGFYPSDIAVEWESNGQPENNYKTTPPVLDSDGSFFLYSKLTVDKSRWQQGNVFSCSVMHEALANHATQKSLSLSPGK
notes: Symmetric mutations in both Fc chains; also called HHY-AAA
binding result: no binding (tested: retention time below 3 minutes)

B2: IgG1 Fc-region with L234A/L235A/P329G and I253A/H435A (other)
chain: B1 chain with I33A, A90H, A213H, H215A, A216Y
notes: Symmetric mutations in both Fc chains
binding result: no binding (tested: retention time below 3 minutes)

B3: IgG1 Fc-region with L234A/L235A/P329G and I253A/H310A (other)
chain: B1 chain with I33A, A213H, A216Y
notes: as for B2
binding result: no binding (tested: retention time below 3 minutes)

B4: IgG1 Fc-region with L234A/L235A/P329G and I253A/H310A/H435A (other)
chain: B1 chain with I33A, A213H, H215A, A216Y
notes: Symmetric mutations in both Fc chains; also called IHH-AAA
binding result: no binding (tested: retention time below 3 minutes)

B5: IgG1 Fc-region with L234A/L235A/P329G and H310A/Y436A (other)
chain: B1 chain with A213H
notes: as for B2
binding result: no binding (tested: retention time below 3 minutes)

B6: IgG1 Fc-region with L234A/L235A/P329G and H310A/H435A (other)
chain: B1 chain with A213H, H215A, A216Y
notes: as for B2
binding result: no binding (tested: retention time below 3 minutes)

Continued, values first:

retention time: 52 min
Molecule: anti-HER2 antibody with symmetric mutation N434H

retention time: 46.4 min
Molecule: anti-HER2 antibody with symmetric mutation E430H

retention time: 46.3 min
Molecule: anti-HER2 antibody with symmetric mutation Q311H

retention time: 41.4 min
Molecule: anti-HER2 antibody with symmetric mutation R255D

retention time: 46.2 min
Molecule: anti-HER2 antibody with symmetric mutation K290H

retention time: 46.3 min
Molecule: anti-HER2 antibody with symmetric mutation K317H

retention time: 45.5 min
Molecule: anti-HER2 antibody with symmetric mutation L309H

retention time: 45.6 min
Molecule: anti-HER2 antibody with symmetric mutation E258H

retention time: 45.2 min
Molecule: anti-HER2 antibody with symmetric mutation K288E
